# Data published in article PMC8046733 (Immunity, 2021).
# B1: RM2-01 heavy-chain variant I51A (antibody, V domains shown)
# VH: QVQLVQSGAEVKKPGASVKLSCKASGFTFRIYAISWVRQAPGQGLEWMGEAVPLGGITNYAQNFQGRAAITADTSINTAYMELSSLRSDDTAVYYCARVRTALVGPREGIFDFWGQGVLVTVSS
# VL: DIQMTQSPSSLSASVGDRVSITCRASQTISTYLAWYQQKPGKVPKLLIYTASTLETGVPSRFSGSGSGTEFTLTISSLQPEDFATYYCQQHDSHPYSFGQGTKVEIK
# B2: RM2-01 heavy-chain variant P52aA (antibody, V domains shown)
# VH: QVQLVQSGAEVKKPGASVKLSCKASGFTFRIYAISWVRQAPGQGLEWMGEIVALGGITNYAQNFQGRAAITADTSINTAYMELSSLRSDDTAVYYCARVRTALVGPREGIFDFWGQGVLVTVSS
# VL: DIQMTQSPSSLSASVGDRVSITCRASQTISTYLAWYQQKPGKVPKLLIYTASTLETGVPSRFSGSGSGTEFTLTISSLQPEDFATYYCQQHDSHPYSFGQGTKVEIK
# B3: RM2-01 heavy-chain variant I56A (antibody, V domains shown)
# VH: QVQLVQSGAEVKKPGASVKLSCKASGFTFRIYAISWVRQAPGQGLEWMGEIVPLGGATNYAQNFQGRAAITADTSINTAYMELSSLRSDDTAVYYCARVRTALVGPREGIFDFWGQGVLVTVSS
# VL: DIQMTQSPSSLSASVGDRVSITCRASQTISTYLAWYQQKPGKVPKLLIYTASTLETGVPSRFSGSGSGTEFTLTISSLQPEDFATYYCQQHDSHPYSFGQGTKVEIK
# B4: RM11-43 heavy-chain variant I52A (antibody, V domains shown)
# VH: QVQLVQSGAEVKKPGASVKLSCKASGFTFRIYAISWVRQAPGQGLEWMGEIAPLGGITNYAQKFQGRVTITADTSTSTAYMELSSLRSEDTAVYYCARGETKMITVLAGTTGGGLDSWGQGTLVTVSS
# VL: DIQMTQSPSSLSASVGDKVTITCHASQGISSWLAWYQQKPGKAPKPLIYAASSLQSGVPSRFSGGGSGADYTLTISSLQPEDFATYYCQQYDDLPRTFGQGTKVEIK
# B5: RM11-43 heavy-chain variant I56A (antibody, V domains shown)
# VH: QVQLVQSGAEVKKPGASVKLSCKASGFTFRIYAISWVRQAPGQGLEWMGEIIPLGGATNYAQKFQGRVTITADTSTSTAYMELSSLRSEDTAVYYCARGETKMITVLAGTTGGGLDSWGQGTLVTVSS
# VL: DIQMTQSPSSLSASVGDKVTITCHASQGISSWLAWYQQKPGKAPKPLIYAASSLQSGVPSRFSGGGSGADYTLTISSLQPEDFATYYCQQYDDLPRTFGQGTKVEIK
# B6: RM11-43 heavy-chain variant L53A (antibody, V domains shown)
# VH: QVQLVQSGAEVKKPGASVKLSCKASGFTFRIYAISWVRQAPGQGLEWMGEIIPAGGITNYAQKFQGRVTITADTSTSTAYMELSSLRSEDTAVYYCARGETKMITVLAGTTGGGLDSWGQGTLVTVSS
# VL: DIQMTQSPSSLSASVGDKVTITCHASQGISSWLAWYQQKPGKAPKPLIYAASSLQSGVPSRFSGGGSGADYTLTISSLQPEDFATYYCQQYDDLPRTFGQGTKVEIK
# Target: HCV-1 E1E2 (autologous strain) (Hepatitis C virus genotype 1a, strain …, UniProt P26664, strain)
# Assay: ELISA
row,Binder,binding result
1,B1,binds
2,B2,binds
3,B3,binds
4,B4,binds
5,B5,binds
6,B6,binds
